Laboratory results as given in patent US20260028677A1, “Compositions and Methods for Modulating Genetic Drivers” (Flagship Pioneering Innovations VII, LLC, priority 2022, published 2026).
Where a chain is given by its changes, count along the chain named. Names and notes keep the numbering of the source. “Also recorded” adds a separate entry of the source.

B1: SEQ ID NO: 5392: target protein, extracellular transmembrane protein, over-expressed from plasmid (protein, listed as Homo sapiens)
chain: MVEKSHPSSLPTLPQPLNHCPETYMLLSAAPSGASQLLSTLTLFLKKHRMDIRTISLRMLLSHTGKLAL
B2: SEQ ID NO: 5391: novel, un-annotated target protein (predicted TM protein) carrying a TCGA mutation site, over-expressed from pcDNA3.1 plasmid (protein, listed as Homo sapiens)
chain: LLLLIIWVRVTFMSCSTHREGLQLRYSLLKPARPRTHREEETTPDAPPLRAVTLTVKVCGITPEVRETTNPPEETPDASEHLKEQTLDTPSLRTETPRQFAASFLKAVRPRTHQFWTQKDLSRLRKWQAIYEEGRDSKRWSQVL
B3: SEQ ID NO: 5391_P31L: mutant version of SEQ ID NO: 5391 that contains the TCGA P31L mutation (protein, listed as Homo sapiens)
chain: B2 chain with P31L
B4: SEQ ID NO: 4538: target protein, extracellular transmembrane protein, over-expressed from plasmid (protein, listed as Homo sapiens)
chain: LARLFLRPRGPRSPIIQFRRVTGAAVASQGAGSLSPALLPLAPSPRPRRAGLRGQGPSGEGYHLTWKKMSSLEKKHSNVIVQNSLNIHNR
B5: SEQ ID NO: 4335: target protein, extracellular transmembrane protein, over-expressed from plasmid (protein, listed as Homo sapiens)
chain: MNLNPRLRLQVISFHPHPKALAVTLLPALTQSLCLCMASCVYSGPKGFLFLFFPQTAQEKHMKNIT

How the values were obtained:
[1] = test system: lung cancer (A549), liver cancer (HepG2), and colon cancer (HCT-116) cells; experiment: WST-1 cell proliferation assay, transient over-expression in multiple cell lines; type: cell-based; settings: genetic overexpression in multiple cell lines (A549, HepG2, HCT-116); WST-1 48 hours after transfection; vs pcDNA3.1-Myc negative control
Method: FIGS. 2A-2C show analysis of cell viability using the WST-1 assay on lung cancer (A549), liver cancer (HepG2), and colon cancer (HCT-116). Cells were transfected with SEQ ID NO: 4538, SEQ ID NO: 5392, and SEQ ID NO: 4335 individually. pcDNA3.1-Myc tagged was used for negative control. After plasmid transfection, cell proliferation was measured 48 hours later using WST-1 assay. Data are presented as the mean±SD of three independent experiments performed in triplicate. FIG. 2A) WST-1 results in HCT-116 cells. Top: low serum, Bottom: High serum. FIG. 2B) WST-1 results in HepG2 cells. Top: low serum, Bottom: High serum. FIG. 2C) WST-1 results in A549 cells. Top: low serum, Bottom: High serum.
Experimental Design: Protein overexpression plasmids encoding Target Proteins or controls were transiently transfected into multiple cell lines. 24 hours later proliferation was measured using WST-1 assay.
(§1) Materials and Methods: Seed the cells of interest into 96-well plate at a density of 4,000 cells per well in 100 μL of cell culture medium. Incubate the cells in a humidified incubator at 37° C. with 5% CO2 for 24 hours. Dilute the Lipofectamine 3000 (Thermo Fisher) in Opti-MEM medium (Thermo Fisher) to a final concentration of 30 μL/mL. […] Measure the absorbance at 450 nm using a microplate reader. A reference wavelength of 650 nm can be used to correct for background absorbance. Calculate the percentage of viable cells in each well by subtracting the absorbance of the blank (medium only) from the absorbance of each well and expressing the results as a percentage of the control group.

[2] = test system: colon cancer cell line HCT116 cells; experiment: WST-1 cell proliferation assay, transient over-expression in HCT116; type: cell-based; settings: transient over-expression from pcDNA3.1 plasmid with Lipofectamine 3000 in HCT116; WST-1 48 hours after transfection; high serum conditions; vs control
Method: WST-1 assay on HCT-116 to examine their cell viability and growth when transiently over-expressed SEQ ID NO: 5391 using Lipofectamine 3000. After plasmid transfection, cell proliferation was measured 48 hours later using WST-1 assay. Data are presented as the mean±SD of three independent experiments performed in triplicate.
Protein overexpression plasmids encoding Target Proteins or controls were transiently transfected into multiple cell lines. 24 hours later proliferation was measured using WST-1 assay.
as §1, with “Seed” for “Materials and Methods: Seed”

Molecule | proliferation of cells (WST-1 assay) [1] | proliferation of colon cancer cells (WST-1 assay) [2]
B1 | significantly increases the proliferation | 
B2 |  | significantly increases the proliferation; also recorded: increases the proliferation of colon cancer cells
B3 |  | effect on proliferation is significantly more pronounced
B4 | significantly increases the proliferation | 
B5 | significantly increases the proliferation | 
